Reference: PMC3193378 (European Journal of Immunology, 2011)
One block for each binder: values may come before it.

Tests used:
[1] = target: T1, soluble CD14 protein (sCD14, aa 1-352) (human, UniProt P08571 20-352); assay: pull-down
T1 sequence (looked up): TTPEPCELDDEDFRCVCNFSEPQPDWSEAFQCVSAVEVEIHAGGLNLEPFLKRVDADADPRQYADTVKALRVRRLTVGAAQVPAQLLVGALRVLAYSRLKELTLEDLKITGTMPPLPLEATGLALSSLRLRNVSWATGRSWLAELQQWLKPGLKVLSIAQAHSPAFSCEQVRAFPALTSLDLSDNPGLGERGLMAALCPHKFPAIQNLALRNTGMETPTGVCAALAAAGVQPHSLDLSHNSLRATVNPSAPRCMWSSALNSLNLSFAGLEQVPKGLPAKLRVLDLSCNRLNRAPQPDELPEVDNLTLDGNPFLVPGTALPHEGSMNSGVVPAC

[2] = target: T1, soluble CD14 protein (sCD14, aa 1-352); assay: ELISA

binding result [1]: binds
B1: GST-HMGB1 (natural protein, human, UniProt P09429 1-215, looked up)
chain: MGKGDPKKPRGKMSSYAFFVQTCREEHKKKHPDASVNFSEFSKKCSERWKTMSAKEKGKFEDMAKADKARYEREMKTYIPPKGETKKKFKDPNAPKRPPSAFFLFCSEYRPKIKGEHPGLSIGDVAKKLGEMWNNTAADDKQPYEKKAAKLKEKYEKDIAAYRAKGKPDAAKKGVVKAEKSKKKKEEEEDEEDEEDEEEEEDEEDEDEEEDDDDE

binding result [2]: binds
B2: 6-His-tagged HMGB1 B box protein (aa 88-162) (domain or fragment, human, UniProt P09429 88-162, looked up)
chain: KFKDPNAPKRPPSAFFLFCSEYRPKIKGEHPGLSIGDVAKKLGEMWNNTAADDKQPYEKKAAKLKEKYEKDIAAY
